For this data set, the system named is acetylated histone H3. The note with it: ChIP with qPCR.

On to “p16 5'-UTR CpG island region, methylated (untreated HCT15)”, for which the binding signal (reference (10-fold lower than treated)) (5mC in CpG island, untreated HCT15 cells) came to 1.
Under “HCT15 cells treated with 2 uM 5-azacytidine”, “p16 5'-UTR CpG island region, unmethylated (5-azacytidine-treated HCT15)” came in with a binding signal (fold enrichment vs untreated) of 10.

These data come from patent US20020081603.
